In the supplement of paper PMC10065799, “High-throughput profiling of sequence recognition by tyrosine kinases and SH2 domains using bacterial peptide display” (eLife, 2023):

Each sequence was assayed against Grb2 SH2 (UniProt P62993) (assay: SH2 binding enrichment of the phosphorylated peptide, bacterial display (enrichment ratio); higher = better substrate or ligand; peptides without Tyr show the background).
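For SH2 binding enrichment of the phosphorylated peptide, bacterial display in this document: peptide library displayed on the E. coli surface as eCPX fusions, selected cells deep-sequenced, score is each peptide's frequency after selection divided by its frequency in the input.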
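For phosphorylation enrichment, bacterial display in this document: 11-residue human phosphosite peptides and single-mutation variants displayed on the E. coli surface, counted by deep sequencing, each peptide's frequency after selection divided by its frequency in the unselected input library; frequency after pTyr selection over input frequency; kinase dosed for 20-30% of maximal phosphorylation in three min.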

SH2 binding enrichment | Sequence
1.04 | RLSVDYGKKSK [TUBA3E_Y161_S162G]
1.05 | TKAEKYVNKPK [PLCG1_Y991_A995P]
0.921 | TTTQAYRVDER [PRKN_Y391]
1.35 | GCKNRYDEDKP [THAP1_Y14_K16E]
0.688 | NREGVYTVFAP [TGFBI_Y537]
0.806 | PVPKTYDMLKA [PKP2_Y108]
1.1 | ETKKQYNSFTY [TMED3_Y85_D86N]
0.896 | SARSAYQEAID [SFN_Y151_M155I]
0.827 | EPTPSYEVGQR [TSC2_Y1788_G1787S]
0.728 | SPYAVYRFFTF [RPGRIP1_Y826]
0.877 | SVVMPYEPPEV [TP53_Y220_V218M]
1.11 | NPEACYQRLKK [TK2_Y190_T188A]
0.882 | CSPLLYKVIMS [OR8D4_Y132_R133K]
1.5 | GCKNRYDKGKP [THAP1_Y14_D17G]

Further lines, the sequence ahead of its results:

Sequence | SH2 binding enrichment
EVVGRYSVHNA [MLH1_Y183] | 0.668
CRIELYRVVES [IGFBP1_Y181] | 0.819
IKKLIYVFLVI [JAGN1_Y42_H44Y_YF] | 2
HKLSSYEFDFE [BTK_Y40_Y39S_YF] | 0.974
AFGEVYEGQVS [ALK_Y1131] | 0.914
VITDYYVDMKF [MPP4_Y567] | 0.993
RRAKGYPIFLF [ITGB2_Y125_D128Y_YF] | 0.62
LNECHYGALIG [BPGM_Y92_R90C] | 0.681
PPVVNYEQDAR [FER_Y402_E404Q] | 0.879
IHFAIYFLKFS [ARMC9_Y107_L108F_YF] | 1.93
GLNKDYRMVVN [HINT1_Y94_G93D] | 0.734
LDYNEYFRNLN [HPRT1_Y198_D201N] | 0.81
WTAHSYRMGST [ARHGEF7_Y785] | 0.838
AAFNKYDQERF [CDC73_Y293_R292K_YF] | 0.867
LLANAYIYDVQ [L1CAM_Y418_V421D] | 0.803
MEVEQYIFVKC [CYBB_Y324_G322E] | 0.725
KTVQDYLEKFY [MMP8_Y36] | 1.13
CRWKRYQCSHD [GDPD5_Y30_R32C] | 0.656
AQVDTYCRHNF [HLA-DRB1_Y107_A103Q_YF] | 1.06

Each sequence was assayed against c-Src SH2 in the same assay as above.

SH2 binding enrichment | Sequence
0.83 | RLSVDYGKKSK [TUBA3E_Y161_S162G]
0.999 | TKAEKYVNKPK [PLCG1_Y991_A995P]
0.465 | TTTQAYRVDER [PRKN_Y391]
0.692 | GCKNRYDEDKP [THAP1_Y14_K16E]
0.604 | NREGVYTVFAP [TGFBI_Y537]
1.39 | PVPKTYDMLKA [PKP2_Y108]
1.03 | ETKKQYNSFTY [TMED3_Y85_D86N]
1.06 | SARSAYQEAID [SFN_Y151_M155I]
0.533 | EPTPSYEVGQR [TSC2_Y1788_G1787S]
0.447 | SPYAVYRFFTF [RPGRIP1_Y826]
1.06 | SVVMPYEPPEV [TP53_Y220_V218M]
1.1 | NPEACYQRLKK [TK2_Y190_T188A]
0.488 | CSPLLYKVIMS [OR8D4_Y132_R133K]
1.32 | GCKNRYDKGKP [THAP1_Y14_D17G]

Second part, the sequence before the results:

Sequence | SH2 binding enrichment
EVVGRYSVHNA [MLH1_Y183] | 0.42
CRIELYRVVES [IGFBP1_Y181] | 0.538
IKKLIYVFLVI [JAGN1_Y42_H44Y_YF] | 1.22
HKLSSYEFDFE [BTK_Y40_Y39S_YF] | 3
AFGEVYEGQVS [ALK_Y1131] | 0.499
VITDYYVDMKF [MPP4_Y567] | 1.31
RRAKGYPIFLF [ITGB2_Y125_D128Y_YF] | 0.582
LNECHYGALIG [BPGM_Y92_R90C] | 0.334
PPVVNYEQDAR [FER_Y402_E404Q] | 0.728
IHFAIYFLKFS [ARMC9_Y107_L108F_YF] | 1.12
GLNKDYRMVVN [HINT1_Y94_G93D] | 0.451
LDYNEYFRNLN [HPRT1_Y198_D201N] | 0.507
WTAHSYRMGST [ARHGEF7_Y785] | 0.538
AAFNKYDQERF [CDC73_Y293_R292K_YF] | 0.44
LLANAYIYDVQ [L1CAM_Y418_V421D] | 0.818
MEVEQYIFVKC [CYBB_Y324_G322E] | 0.513
KTVQDYLEKFY [MMP8_Y36] | 0.51
CRWKRYQCSHD [GDPD5_Y30_R32C] | 0.494
AQVDTYCRHNF [HLA-DRB1_Y107_A103Q_YF] | 0.621

These sequences were tested against SHP2-C SH2 in the same assay as above.

SH2 binding enrichment | Sequence
0.843 | RLSVDYGKKSK [TUBA3E_Y161_S162G]
1.16 | TKAEKYVNKPK [PLCG1_Y991_A995P]
0.597 | TTTQAYRVDER [PRKN_Y391]
0.722 | GCKNRYDEDKP [THAP1_Y14_K16E]
0.516 | NREGVYTVFAP [TGFBI_Y537]
0.695 | PVPKTYDMLKA [PKP2_Y108]
0.704 | ETKKQYNSFTY [TMED3_Y85_D86N]
0.705 | SARSAYQEAID [SFN_Y151_M155I]
0.738 | EPTPSYEVGQR [TSC2_Y1788_G1787S]
0.574 | SPYAVYRFFTF [RPGRIP1_Y826]
0.738 | SVVMPYEPPEV [TP53_Y220_V218M]
0.949 | NPEACYQRLKK [TK2_Y190_T188A]
0.635 | CSPLLYKVIMS [OR8D4_Y132_R133K]
1.32 | GCKNRYDKGKP [THAP1_Y14_D17G]

The remaining lines, values behind:

Sequence | SH2 binding enrichment
EVVGRYSVHNA [MLH1_Y183] | 0.597
CRIELYRVVES [IGFBP1_Y181] | 0.653
IKKLIYVFLVI [JAGN1_Y42_H44Y_YF] | 1.79
HKLSSYEFDFE [BTK_Y40_Y39S_YF] | 0.719
AFGEVYEGQVS [ALK_Y1131] | 0.456
VITDYYVDMKF [MPP4_Y567] | 0.6
RRAKGYPIFLF [ITGB2_Y125_D128Y_YF] | 0.679
LNECHYGALIG [BPGM_Y92_R90C] | 0.446
PPVVNYEQDAR [FER_Y402_E404Q] | 0.826
IHFAIYFLKFS [ARMC9_Y107_L108F_YF] | 1.86
GLNKDYRMVVN [HINT1_Y94_G93D] | 0.635
LDYNEYFRNLN [HPRT1_Y198_D201N] | 0.967
WTAHSYRMGST [ARHGEF7_Y785] | 0.651
AAFNKYDQERF [CDC73_Y293_R292K_YF] | 0.776
LLANAYIYDVQ [L1CAM_Y418_V421D] | 1.13
MEVEQYIFVKC [CYBB_Y324_G322E] | 0.599
KTVQDYLEKFY [MMP8_Y36] | 0.686
CRWKRYQCSHD [GDPD5_Y30_R32C] | 0.583
AQVDTYCRHNF [HLA-DRB1_Y107_A103Q_YF] | 0.834

What follows are sequences tested against MERTK (UniProt Q12866) (assay: phosphorylation enrichment, bacterial display (enrichment ratio); higher = better substrate or ligand; peptides without Tyr show the background).
Chain of MERTK (Q12866 whole entry, looked up): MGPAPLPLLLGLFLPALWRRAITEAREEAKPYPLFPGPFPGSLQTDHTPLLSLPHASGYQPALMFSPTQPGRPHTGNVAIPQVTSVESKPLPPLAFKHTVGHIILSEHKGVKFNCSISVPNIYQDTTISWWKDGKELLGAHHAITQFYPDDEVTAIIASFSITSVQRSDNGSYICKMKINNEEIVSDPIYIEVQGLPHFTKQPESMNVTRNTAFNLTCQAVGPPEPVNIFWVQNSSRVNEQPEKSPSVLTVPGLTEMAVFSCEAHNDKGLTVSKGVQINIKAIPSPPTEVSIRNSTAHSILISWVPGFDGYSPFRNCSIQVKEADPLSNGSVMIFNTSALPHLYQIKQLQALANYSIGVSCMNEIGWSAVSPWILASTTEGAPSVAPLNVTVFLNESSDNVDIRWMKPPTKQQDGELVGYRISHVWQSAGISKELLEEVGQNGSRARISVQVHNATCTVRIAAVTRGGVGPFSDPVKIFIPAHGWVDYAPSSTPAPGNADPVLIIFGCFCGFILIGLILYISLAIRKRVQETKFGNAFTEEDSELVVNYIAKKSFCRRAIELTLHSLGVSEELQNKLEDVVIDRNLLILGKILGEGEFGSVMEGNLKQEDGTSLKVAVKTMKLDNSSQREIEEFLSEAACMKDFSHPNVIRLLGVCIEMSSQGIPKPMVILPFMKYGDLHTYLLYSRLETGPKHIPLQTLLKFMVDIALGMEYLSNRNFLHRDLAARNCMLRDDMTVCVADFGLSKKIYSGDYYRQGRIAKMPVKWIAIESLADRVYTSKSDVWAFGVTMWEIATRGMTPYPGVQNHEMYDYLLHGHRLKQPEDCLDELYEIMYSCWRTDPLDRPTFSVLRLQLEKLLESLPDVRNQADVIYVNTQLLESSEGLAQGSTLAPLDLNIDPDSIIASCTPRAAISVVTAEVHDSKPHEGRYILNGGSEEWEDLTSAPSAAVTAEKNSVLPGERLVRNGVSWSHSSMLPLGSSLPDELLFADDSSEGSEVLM

Sequence | phosphorylation enrichment
RLSVDYGKKSK [TUBA3E_Y161_S162G] | 0.389
TKAEKYVNKPK [PLCG1_Y991_A995P] | 0.423
EVVGRYSVHNA [MLH1_Y183] | 0.421
CRIELYRVVES [IGFBP1_Y181] | 0.46
TTTQAYRVDER [PRKN_Y391] | 0.404
IKKLIYVFLVI [JAGN1_Y42_H44Y_YF] | 0.547
HKLSSYEFDFE [BTK_Y40_Y39S_YF] | 0.865
GCKNRYDEDKP [THAP1_Y14_K16E] | 0.431
NREGVYTVFAP [TGFBI_Y537] | 11.4
PVPKTYDMLKA [PKP2_Y108] | 0.648
AFGEVYEGQVS [ALK_Y1131] | 0.442
VITDYYVDMKF [MPP4_Y567] | 1.15
ETKKQYNSFTY [TMED3_Y85_D86N] | 0.463
SARSAYQEAID [SFN_Y151_M155I] | 0.471
EPTPSYEVGQR [TSC2_Y1788_G1787S] | 0.383
RRAKGYPIFLF [ITGB2_Y125_D128Y_YF] | 0.524
SPYAVYRFFTF [RPGRIP1_Y826] | 0.797

Sequence | phosphorylation enrichment
SVVMPYEPPEV [TP53_Y220_V218M] | 0.492
LNECHYGALIG [BPGM_Y92_R90C] | 0.741
PPVVNYEQDAR [FER_Y402_E404Q] | 0.541
IHFAIYFLKFS [ARMC9_Y107_L108F_YF] | 0.406
GLNKDYRMVVN [HINT1_Y94_G93D] | 0.424
NPEACYQRLKK [TK2_Y190_T188A] | 0.484
LDYNEYFRNLN [HPRT1_Y198_D201N] | 0.382
WTAHSYRMGST [ARHGEF7_Y785] | 0.37
AAFNKYDQERF [CDC73_Y293_R292K_YF] | 0.396
LLANAYIYDVQ [L1CAM_Y418_V421D] | 2.71
CSPLLYKVIMS [OR8D4_Y132_R133K] | 0.6
GCKNRYDKGKP [THAP1_Y14_D17G] | 0.408
MEVEQYIFVKC [CYBB_Y324_G322E] | 0.509
KTVQDYLEKFY [MMP8_Y36] | 0.517
CRWKRYQCSHD [GDPD5_Y30_R32C] | 0.384
AQVDTYCRHNF [HLA-DRB1_Y107_A103Q_YF] | 0.528
